The labels stand for the following.
B1: H2-Kb / Ed31 (parent complex)
chain 1: GQQVQQSPASLVLQEGENAELQCNFSTSLNSMQWFYQRPGGSLVSLFYNPSGTKHSGRLTSTTVIKERRSSLHISSSQTTDSGTYLCALEGNYAQGLTFGLGTRVSVFP
chain 2: ETAVFQTPNYHVTQVGNEVSFNCKQTLGHDTMYWYKQDSKKLLKIMFSYNNKQLIVNETVPRRFSPQSSDKAHLNLRIKSVEPEDSAVYLCASRSAGEQYFGPGTRLTVL
chain 3: not shown
chain 4: IQKTPQIQVYSRHPPENGKPNILNCYVTQFHPPHIEIQMLKNGKKIPKVEMSDMSFSKDWSFYILAHTEFTPTETDTYACRVKHDSMAEPKTVYWDRDM
chain 5: SIINFEKL
B2: H2-Kb / Ed16-30 (parent complex)
chain 1: GEQVEQRPPHLSVREGDSAVIICTYTDPNSYYFFWYKQEPGAGLQLLMKVFSSTEINEGQGFTVLLNKKDKQLSLNLTAAHPGDSAVYFCAVSEPSSGQKLVFGQGTILKVYL
chain 2: EAAVTQSPRNKVAVTGGKVTLSCNQTNNHNNMYWYRQDTGHGLRLIHYSYGAGSTEKGDIPDGYKASRPSQENFSLILELATPSQTSVYFCAGRDTGQLYFGEGSKLTVL
chain 3: not shown
chain 4: B1 chain 4
chain 5: SIINFEKL
Note: test concentration or dose not given here.

Variants of B1 are the subject of one assay. The experiment in a line: % of reporter cells activated (NFAT-GFP), raw.
As to chain 5 I3Y, the ratio to parent came to 0.0382.

Take chain 5 I3G: the ratio to parent turned out to be 0.309.

Turning to chain 5 I3C, the ratio to parent was determined as 0.555.

As to chain 5 I3Q, the ratio to parent turned out to be 0.272.

Consider chain 5 I3M, for which the ratio to parent was 0.563.

chain 5 I3K: the ratio to parent was found to be 0.735.

For the variant chain 5 I3H, the ratio to parent was 0.183.

Regarding chain 5 I3S, the ratio to parent was found to be 0.38.

For chain 5 I3N, the ratio to parent is 0.225.

As to chain 5 I3A, the ratio to parent came to 0.523.

As to chain 5 I3E, the ratio to parent amounted to 0.499.

Regarding chain 5 I3P, the ratio to parent worked out at 0.894.

On to chain 5 I3T, for which the ratio to parent amounted to 0.548.

Regarding chain 5 I3R, the ratio to parent worked out at 0.0501.

In the case of chain 5 I3L, the ratio to parent amounted to 1.02.

Regarding chain 5 I3F, the ratio to parent came out at 0.0484.

For the variant chain 5 E6Y, the ratio to parent is 0.0864.

For the variant chain 5 E6K, the ratio to parent was 0.777.

Take chain 5 E6Q: the ratio to parent came to 0.111.

In the case of chain 5 E6S, the ratio to parent worked out at 0.00329.

For the variant chain 5 E6V, the ratio to parent turned out to be 0.00379.

On to chain 5 E6P, for which the ratio to parent is 0.0101.

For chain 5 E6W, the ratio to parent amounted to 0.00233.

For the variant chain 5 E6C, the ratio to parent is 0.00242.

As to chain 5 E6N, the ratio to parent worked out at 0.0136.

For chain 5 E6I, the ratio to parent was 0.000832.

As to chain 5 E6H, the ratio to parent worked out at 0.174.

On to chain 5 E6L, for which the ratio to parent amounted to 0.0037.

As to chain 5 E6F, the ratio to parent worked out at 0.0115.

Consider chain 5 E6G, for which the ratio to parent was 0.435.

In the case of chain 5 E6T, the ratio to parent was 0.00208.

As for chain 5 E6D, the ratio to parent amounted to 0.458.

In the case of chain 5 K7Y, the ratio to parent is 0.167.

Turning to chain 5 K7G, the ratio to parent worked out at 0.186.

On to chain 5 K7E, for which the ratio to parent came out at 0.0194.

With chain 5 K7T, the ratio to parent was 0.102.

With chain 5 K7R, the ratio to parent is 0.698.

Take chain 5 K7Q: the ratio to parent is 0.146.

For chain 5 K7P, the ratio to parent is 0.298.

With chain 5 K7V, the ratio to parent was determined as 0.247.

Turning to chain 5 K7A, the ratio to parent worked out at 0.41.

As for chain 5 K7F, the ratio to parent worked out at 0.0347.

Consider chain 5 K7S, for which the ratio to parent came out at 0.614.

As for chain 5 K7C, the ratio to parent is 0.747.

For chain 5 K7W, the ratio to parent was determined as 0.542.

For the variant chain 5 K7D, the ratio to parent is 0.167.

Turning to chain 5 K7L, the ratio to parent is 0.141.

Take chain 5 K7N: the ratio to parent came out at 0.185.

For chain 5 K7I, the ratio to parent was 0.176.

In the case of chain 5 K7H, the ratio to parent came to 0.323.

As to chain 5 N4M, the ratio to parent is 0.207.

Turning to chain 5 N4T, the ratio to parent came to 0.156.

Turning to chain 5 N4S, the ratio to parent was 0.00781.

In the case of chain 5 N4D, the ratio to parent is 0.00288.

As for chain 5 N4L, the ratio to parent turned out to be 0.198.

Regarding chain 5 N4I, the ratio to parent is 0.484.

chain 5 N4R: the ratio to parent is 0.0703.

For chain 5 N4H, the ratio to parent came to 0.0784.

For the variant chain 5 N4K, the ratio to parent amounted to 0.0359.

For the variant chain 5 N4Y, the ratio to parent turned out to be 0.242.

As to chain 5 N4E, the ratio to parent was 0.0188.

In the case of chain 5 N4W, the ratio to parent was determined as 0.42.

As for chain 5 N4P, the ratio to parent turned out to be 0.0223.

As for chain 5 N4A, the ratio to parent stood at 0.0503.

With chain 5 N4G, the ratio to parent was determined as 0.083.

On to chain 5 N4Q, for which the ratio to parent worked out at 0.583.

In the case of chain 5 N4V, the ratio to parent amounted to 0.132.

Turning to chain 5 N4C, the ratio to parent was 0.031.

For the variant chain 5 L8W, the ratio to parent amounted to 0.766.

chain 5 L8Y: the ratio to parent is 0.922.

As to chain 5 L8T, the ratio to parent was 0.862.

For the variant chain 5 L8I, the ratio to parent came to 0.968.

As to chain 5 L8Q, the ratio to parent was determined as 0.876.

Consider chain 5 L8D, for which the ratio to parent stood at 0.549.

For chain 5 L8H, the ratio to parent was determined as 0.802.

For the variant chain 5 L8S, the ratio to parent amounted to 0.762.

In the case of chain 5 L8F, the ratio to parent is 0.891.

For chain 5 L8K, the ratio to parent is 0.854.

On to chain 5 L8R, for which the ratio to parent worked out at 0.791.

As to chain 5 L8N, the ratio to parent worked out at 0.69.

As for chain 5 L8G, the ratio to parent is 0.711.

On to chain 5 L8A, for which the ratio to parent was 0.898.

Consider chain 5 L8M, for which the ratio to parent stood at 0.945.

In the case of chain 5 F5K, the ratio to parent is 0.509.

For the variant chain 5 F5D, the ratio to parent turned out to be 0.536.

On to chain 5 F5Q, for which the ratio to parent is 0.49.

In the case of chain 5 F5T, the ratio to parent was found to be 0.956.

On to chain 5 F5I, for which the ratio to parent amounted to 0.496.

For chain 5 F5Y, the ratio to parent was 1.11.

For the variant chain 5 F5A, the ratio to parent turned out to be 0.866.

Turning to chain 5 F5C, the ratio to parent is 0.68.

As to chain 5 F5E, the ratio to parent came out at 0.407.

As for chain 5 F5S, the ratio to parent was determined as 0.753.

For chain 5 F5N, the ratio to parent came out at 0.525.

Regarding chain 5 F5R, the ratio to parent is 0.635.

In the case of chain 5 F5P, the ratio to parent is 0.261.

In the case of chain 5 S1D, the ratio to parent turned out to be 0.504.

In the case of chain 5 S1L, the ratio to parent was determined as 0.46.

In the case of chain 5 S1C, the ratio to parent worked out at 0.44.

In the case of chain 5 S1P, the ratio to parent came to 0.658.

Take chain 5 S1V: the ratio to parent came out at 0.551.

Regarding chain 5 S1A, the ratio to parent was 0.803.

In the case of chain 5 S1I, the ratio to parent amounted to 0.676.

Consider chain 5 S1K, for which the ratio to parent was determined as 0.757.

For the variant chain 5 S1F, the ratio to parent worked out at 0.459.

As to chain 5 S1R, the ratio to parent turned out to be 0.532.

In the case of chain 5 S1G, the ratio to parent turned out to be 1.04.

Turning to chain 5 S1H, the ratio to parent was 1.04.

Take chain 5 S1E: the ratio to parent is 0.561.

chain 5 S1Y: the ratio to parent stood at 0.934.

Turning to chain 5 S1T, the ratio to parent is 0.99.

chain 5 I2K: the ratio to parent worked out at 0.818.

For chain 5 I2Y, the ratio to parent was found to be 0.658.

In the case of chain 5 I2G, the ratio to parent amounted to 1.11.

For chain 5 I2T, the ratio to parent was determined as 1.09.

For the variant chain 5 I2V, the ratio to parent stood at 1.07.

Consider chain 5 I2L, for which the ratio to parent was 1.12.

For chain 5 I2A, the ratio to parent worked out at 1.18.

Take chain 5 I2S: the ratio to parent amounted to 1.12.

Consider chain 5 I2D, for which the ratio to parent was 0.962.

For the variant chain 5 I2P, the ratio to parent was 0.972.

In the case of chain 5 I2E, the ratio to parent was 1.11.

Consider chain 5 I2H, for which the ratio to parent amounted to 0.832.

Regarding chain 5 I2M, the ratio to parent came out at 1.07.

In the case of chain 5 I2N, the ratio to parent is 0.832.

Consider chain 5 I2F, for which the ratio to parent was determined as 0.795.

Variants of B2 are the subject of another assay. The experiment in a line: % of reporter cells activated (NFAT-GFP), raw.
Consider chain 5 S1I, for which the ratio to parent amounted to 0.323.

chain 5 I2C: the ratio to parent came out at 1.12.

Consider chain 5 I2W, for which the ratio to parent was 0.866.

chain 5 I2F: the ratio to parent is 1.08.

As for chain 5 I2R, the ratio to parent amounted to 0.968.

In the case of chain 5 F5D, the ratio to parent is 0.85.

Take chain 5 F5W: the ratio to parent is 1.03.

On to chain 5 F5A, for which the ratio to parent is 1.21.

chain 5 F5T: the ratio to parent turned out to be 1.23.

chain 5 F5S: the ratio to parent amounted to 1.19.

Consider chain 5 K7N, for which the ratio to parent turned out to be 0.305.

For the variant chain 5 K7F, the ratio to parent came to 0.106.

With chain 5 K7Q, the ratio to parent was 0.297.

Take chain 5 K7M: the ratio to parent amounted to 0.57.

For the variant chain 5 K7R, the ratio to parent was 1.17.

On to chain 5 I3E, for which the ratio to parent turned out to be 0.45.

Regarding chain 5 I3L, the ratio to parent came to 1.03.

With chain 5 E6V, the ratio to parent was 0.0227.

As to chain 5 E6W, the ratio to parent was 0.422.

As to chain 5 N4Y, the ratio to parent stood at 0.0322.

On to chain 5 L8E, for which the ratio to parent came to 0.823.

chain 5 L8D: the ratio to parent came out at 0.715.

With chain 5 L8V, the ratio to parent is 1.

Turning to chain 5 L8W, the ratio to parent was 0.929.

The values are drawn from paper PMC11480844 (2024).
